To fix the notation:
B1: purified DAT[NT1-1] (M1-V15) peptide (peptide)
peptide: MSKSKCSVGLMSSVV
notes: also called DAT[NT1-1] peptide
B2: [35S]-methionine-labelled D2[IL3-2] probe (peptide)
chain: EAARRAQELEMEMLSSTSPPERTRYSPIPPSHHQLTLPDPSHHGLHSTPDSPAKPEKNGHAKDHPKIAKIFEIQTMPNGKTRTSLKTMSRRKLSQQKEKKATQ
modifications: [35S]-methionine-labelled
notes: also called [35S]-D2[IL3-2]

For experiment [1], the target named is B2. Kind of experiment: conclusion from the peptide competition in the in vitro binding assay (GST-DAT[NT1] with [35S]-D2[IL3-2]).
Description: (§1) The beads were then washed 4-6 times with PBS containing 0.5% Triton X-100 and eluted with 10 mM glutathione elution buffer. Eluates were separated by SDS-PAGE and visualized by autoradiography.
Experiment [2] addresses T1, GST fused DAT[NT1] (M1-P26) (UniProt P08515 1-218 = GST).
T1 construct: also called GST-DAT[NT1]
Kind of experiment: in vitro binding assay, FIG. 1G.
Description: as §1

The target of experiment [3] is T2, GST fused DAT[NT2] (A16-T43) (UniProt P08515 1-218 = GST).
T2 construct: also called GST-DAT[NT2]
Kind of experiment: in vitro binding assay: GST fusion on glutathione beads with the [35S]-D2[IL3-2] probe, autoradiography.
Description: as §1

The target of experiment [4] is T3, GST fused DAT[NT3] (K35-D68) (UniProt P08515 1-218 = GST).
T3 construct: also called GST-DAT[NT3]
The experiment is described as above.
Description: as §1

T2 sequence (P08515 1-218, tags or fused parts left off): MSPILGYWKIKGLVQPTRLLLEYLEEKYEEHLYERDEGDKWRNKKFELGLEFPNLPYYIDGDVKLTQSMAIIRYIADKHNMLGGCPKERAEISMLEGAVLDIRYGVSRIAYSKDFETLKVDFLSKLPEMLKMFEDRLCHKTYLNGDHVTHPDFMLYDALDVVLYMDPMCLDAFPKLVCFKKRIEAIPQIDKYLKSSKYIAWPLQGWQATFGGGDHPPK
T1 sequence (P08515 1-218, tags or fused parts left off): as above
T3 sequence (P08515 1-218, tags or fused parts left off): as above

Consider B1, for which the binding result in experiment [1] was “binds”.

For the molecule B2, the binding result in experiment [2] is “binds”; in experiment [3], “no binding”; in experiment [4], “no binding”.

(Values after patent US20110091467A1 (CENTRE FOR ADDICTION AND MENTAL HEALTH, published 2011).)
